Results: paper PMC4585211

Columns and labels:
[1] = target: LHCGR-Q303P/E305P (double proline mutant of the human lutropin/choriogonadotropin receptor), GFP fusion (human) (UniProt P22888)
[2] = target: LHCGR-delExon10 (human lutropin/choriogonadotropin receptor lacking the exon10-encoded segment), GFP fusion (human) (UniProt P22888)

In the case of “human choriogonadotropin (hCG) (from UniProt P01215 25-116; P0DN86 21-165) (ligand)”, the EC50 of cAMP accumulation (radioimmunoassay) in transiently transfected HEK 293 cells, stimulation with hCG for 1 h at 37°C; significantly right-shifted against wild type (0.15 IU/ml) [1] is reported as 0.85 IU/ml and the EC50 of cAMP accumulation (radioimmunoassay) in transiently transfected HEK 293 cells, stimulation with hCG for 1 h at 37°C; wild-type-like (wild type 0.15 IU/ml) [2] is reported as 0.18 IU/ml.

“human lutropin (hLH) (from UniProt P01215 25-116; P01229 21-141) (ligand)” showed an EC50 of cAMP accumulation (radioimmunoassay) in transiently transfected HEK 293 cells, stimulation with hLH for 1 h at 37°C; not significantly different from wild type (0.13 IU/ml) [1] of 0.24 IU/ml and an EC50 of cAMP accumulation (radioimmunoassay) in transiently transfected HEK 293 cells, stimulation with hLH for 1 h at 37°C; significantly right-shifted against wild type (0.13 IU/ml) [2] of 0.51 IU/ml.
